Reference: the supplement of paper PMC9170038

System: MS2 coat protein
Assay: apparent KD of MS2 coat protein; designed switch direction (-1 OFF switch, 1 ON switch): -1; higher = weaker reporter binding
Outline: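 Three titration conditions were used: no input, 200 uM small-molecule ligand, and an oligonucleotide input. In each, SNAP-549-labelled MS2 coat protein was raised from 0.7 or 1.5 nM, doubling, to 3 µM over designed RNA switches transcribed on Illumina chips by stalled E. coli RNA polymerase. Curve fits of normalised cluster fluorescence gave values whose per-design median over clusters is the apparent KD.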

[1] = Eterna round: R95, input ligand: FMN 200 uM
[2] = Eterna round: R95, input ligand: microRNA oligo, concentration not stated
[3] = Eterna round: R95, input ligand: none
[4] = input ligand: microRNA oligo, concentration not stated

UCCCGGGUAGGAUAUGCUAGGGUAUGUUCACUUGAUUUAGGACAUGAGGAUCACCCAUGUAGAAGGGCCCGUCG [Eternabot (L1) Solution 25] (Eterna round: R97, puzzle: Exclusion 2)
apparent KD of MS2 coat protein (input ligand: FMN 200 uM): 286 nM | apparent KD of MS2 coat protein (input ligand: none): 459 nM

UCCUCACAUGAGGAUCACCCAUGUUAGGAUAUCCACCGUUGAUGGUGCCGAAUCGGUAGGAGAAGGAACAUACA [EX1 B.18] (Eterna round: R97, puzzle: Exclusion 1)
apparent KD of MS2 coat protein (input ligand: FMN 200 uM): 58.8 nM | apparent KD of MS2 coat protein (input ligand: none): 24.1 nM

UCGACGUAAGGAUAUAUAAGGAACGAAGUAAGUUGUAGAAAAUAGAAGGUACAUGAGGAUCACCCAUGUUAAGA [JR_Exclu4_Sub061] (puzzle: Exclusion 4)
apparent KD of MS2 coat protein [1]: 19.4 nM | apparent KD of MS2 coat protein [2]: 19.6 nM | apparent KD of MS2 coat protein [3]: 18.9 nM

UCGACUACAGUAGGAUAUGUAGGAUAUGUGGUUGAGGAUCACCCAACCACUUCAACGACAGAAGGACAGAAGGACUGACAUCGU [pwkr exNG2 2xFMN 1xF5.4] (Eterna round: R96, puzzle: Exclusion NG 2)
apparent KD of MS2 coat protein (input ligand: FMN 200 uM): 21.5 nM | apparent KD of MS2 coat protein [4]: 14.2 nM | apparent KD of MS2 coat protein (input ligand: none): 20.4 nM

UCGCUCCGUGUAGGAUAUCGCCGUUCUAUUCGGCGAGAAGGACAUGAGGAUCACCCAUGUAUGUUAUUAUCACGCGUGGCGCAC [Design 57] (Eterna round: R96, puzzle: Exclusion NG 1)
apparent KD of MS2 coat protein (input ligand: FMN 200 uM): 21.5 nM | apparent KD of MS2 coat protein [4]: 13.9 nM | apparent KD of MS2 coat protein (input ligand: none): 19.6 nM

UCGCUGCGAGGAUAUACGUGCGCGCGCGCGCGCGCGCGCGUACAUGAGGAUCACCCAUGUAGAAGGCGCUCUGC [Apr-15 SS2-2] (puzzle: Exclusion 2)
apparent KD of MS2 coat protein [2]: 22.9 nM

UCGUCGUCGUCAGGAUAUAGUCUUAUUGUUAUGCUUUUGUUCGUACAUGAGGAUCACCCAUGUGGCUAGAAGGGACUAAAGUUU [JR_ExcNG2_Sub017] (Eterna round: R96, puzzle: Exclusion NG 2)
apparent KD of MS2 coat protein (input ligand: FMN 200 uM): 19.3 nM | apparent KD of MS2 coat protein [4]: 17.2 nM | apparent KD of MS2 coat protein (input ligand: none): 23 nM

UCGUGUAUAGAGGAUAUAUUAUUUUUUAAAACAAUAGAAGGCUAAACAUGAGGAUCACCCAUGUAUUUGGUUUU [JR_Ex6_Sub053] (Eterna round: R97, puzzle: Exclusion 6)
apparent KD of MS2 coat protein (input ligand: FMN 200 uM): 82.1 nM | apparent KD of MS2 coat protein (input ligand: none): 19.6 nM

UCGUGUAUAGAGGAUAUAUUAUUUUUUUUAACAAUAGAAGGCUAAACAUGAGGAUCACCCAUGUAUUUGGUUUU [JR_Ex6_Sub051] (Eterna round: R97, puzzle: Exclusion 6)
apparent KD of MS2 coat protein (input ligand: FMN 200 uM): 69.2 nM | apparent KD of MS2 coat protein (input ligand: none): 22.9 nM

UCUAGACAUGAGGAUCACCCAUGUGAGGAUAUGAUGCGAAUAAAGAAAGAAGAAAGCAUCAGAAGGCACAUAUG [Fiskers Ex 1 - 3] (puzzle: Exclusion 1)
apparent KD of MS2 coat protein [1]: 210 nM | apparent KD of MS2 coat protein [2]: 116 nM | apparent KD of MS2 coat protein [3]: 191 nM

UCUAGUUCAGGAUAUGUAGAUUUUAACAUGAGGAUCACCCAUGUAGAUCCUGAAUUAGCUACAGAAGGGAACAUUU [Mod of Brourd 2 - Jieux - Exclusion 5] (Eterna round: R97, puzzle: Exclusion 5)
apparent KD of MS2 coat protein (input ligand: FMN 200 uM): 18.1 nM | apparent KD of MS2 coat protein (input ligand: none): 13.3 nM

UCUAUAGGGCUGCAGGCUUACAUGAGGAUCACCCAUGUAUAGGGUUUUCUACGCGCUCGUCAUCAUACAUUAAUUCG [Eternabot (L1) Solution 31] (Eterna round: R97, puzzle: Sensor, turn-off variant 1)
apparent KD of MS2 coat protein (input ligand: FMN 200 uM): 44 nM | apparent KD of MS2 coat protein (input ligand: none): 53.1 nM

UCUCGCUGGCGAGGAUAUCCUGUGCGGUUCCGGCUCGUGUCUGUUACAUGAGGAUCACCCAUGUGGGAGAAGGUGCCUGUGGCC [Design 95] (Eterna round: R96, puzzle: Exclusion NG 2)
apparent KD of MS2 coat protein (input ligand: FMN 200 uM): 21.1 nM | apparent KD of MS2 coat protein [4]: 15.6 nM | apparent KD of MS2 coat protein (input ligand: none): 21 nM

UCUCGUUGGCAAGGAUAUCCUACAUUGUUCUGGCCCGGGCAUGCUACAUGAGGAUCACCCAUGUGGGAGAAGGUGCGCCAUUGC [Design 24] (Eterna round: R96, puzzle: Exclusion NG 2)
apparent KD of MS2 coat protein (input ligand: FMN 200 uM): 80.9 nM | apparent KD of MS2 coat protein [4]: 49.7 nM | apparent KD of MS2 coat protein (input ligand: none): 65.2 nM

UCUCUUGGGCAAGGAUAUCCUGUGCGGUUCCGGCUCGUGUCUGUCACAUGAGGAUCACCCAUGUGGGAGAAGGUGCCUGCGGUC [Design 81] (Eterna round: R96, puzzle: Exclusion NG 2)
apparent KD of MS2 coat protein (input ligand: FMN 200 uM): 13.6 nM | apparent KD of MS2 coat protein [4]: 9.94 nM | apparent KD of MS2 coat protein (input ligand: none): 15.1 nM

UCUUAGUCAGGAUAUACAUGAGGAUCACCCAUGUAAAAUUUUAAUUUAAUUUUAAGGUGUAGAAGGGACCACCU [Ex3 #18] (Eterna round: R97, puzzle: Exclusion 3)
apparent KD of MS2 coat protein (input ligand: FMN 200 uM): 19.2 nM | apparent KD of MS2 coat protein (input ligand: none): 23.4 nM
